Positions count from the first letter of the chain named.
B1: BSN-1H2 (antibody, V domains shown)
VH: QAQLQQSGAELARPGASVKLSCKASGYTFTSYGITWVKQRTGQGLEWIGDIYPRSGNIYYNENFKGEATLTADKSSSTAYMQLSRLTSEDSAVYFCARSGWEGWFAYWGQGTLVTVSV
VL: DIVMTQSHKFMSTSVGDRVNITCKASQDVGSAVVWYQQKPGQSPKVLIYWASTRHTGVPDRFTGSGSGTDFTLTISNVQSEDLADYFCQQYSSYRTFGGGTKLEIK
B2: BSN-2E1 (antibody, V domains shown)
VH: QVQLQESGPELVKPGASVKIPCKASGYTFTDYNMDWVKQSHGKSLEWIGDINPHNGGPIYNQKFTGKATLTVDKSSSTAYMELRSLTSEDTAVYYCARGELGHWYFDVWGTGTTVTVSS
VL: NIVMTQSPKSMSMSVGERVTLTCKASENVVTYVSWYQQKPEQSPKLLIYGASNRYTGVPDRFTGSGSATDFTLTISSVQAEDLADYHCGQGYSYPYTFGGGTKLEIK
notes: mouse monoclonal anti-human IL-11 antibody from a hybridoma; also called A3
B3: YU100-E06 (scFv)
scFv: QVQLVESGGGVVQPGRSLRLSCAASGFTFSSYGMHWVRQAPGKGLEWVAVISYDGSNKYYADSVKGRFTISRDNSKNTLYLQMNSLRAEDTAVYYCAKIGATDPLDYWGQGTLVTVSSGSASAPKLEEGEFSEARVQSALTQPASVSGFPEQSITISCTGTSSDVGGYDYVSWYQQHPGKAPKLMIYDVTNRPSGVSNRFSGSKSGNTASLTISGLQPEDEADYYCSSYTSNTTWVFGGGTKLTVLRQPKAAPSVTLFPPSS
B4: YU112-E07 (scFv)
scFv: QVQLVQSGGGVVQPGRSLRLSCAASGFTFGSYGMHWVRQAPGKGLEWVAVISYDGSNKYYADSVKGRFTISRDNSKNTLYLQMNSLRAEDTAVYYCAKGSYYFDYWGQGTLVTVSSGSASAPKLEEGEFSEARVEIVMTQSPDSLAVSLGERATINCKSSQSVNSAYLAWYQHKPGQPPRLLIYGASRRVTGVPDRFSGSGSGTDFTLTISSLQPEDFATYYCQQSYSDPRWTFGQGTKVEIK
B5: YU45-G1 (Fc fusion)
VH: EVQLLESGGGVVQPGRSLRLSCAASGFTFSSYGMHWVRQAPGKGLEWVAVISYDGSNKYYADSVKGRFTISRDNSKNTLYLQMNSLRAEDTAVYYCAKLSGPNGVDYWGQGTLVTVSS
VL: QSALTQPRSVSGSPGQSVTISCTGTSSDVGGYNYVSWYQQHPGKAPKLMIYDVSKRPSGVPDRFSGSKSGNTASLTVSGLQAEDEADYYCCSYAGSYTFVFGGGTKLTVL
notes: tested as scFv-Fc (human IgG1); also called #11
B6: YU45-B6 (Fc fusion)
VH: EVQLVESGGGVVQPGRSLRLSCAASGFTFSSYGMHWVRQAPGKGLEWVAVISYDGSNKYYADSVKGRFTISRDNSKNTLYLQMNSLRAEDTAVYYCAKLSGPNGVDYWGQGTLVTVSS
VL: B5 VL with S27R, K44E, Y51F, V77I, G95D, S96Y, F99W, L107V
notes: tested as scFv-Fc (human IgG1); also called #36
B7: YU46-E3 (Fc fusion, not shown: a dimerising Fc or GST; small tags and cut ends)
VH: B5 VH with E1Q, L5V, K98R, L99I, S100G, P102Y, N103D, G104D, V105F
VL: QSALTQPASVSGSPGQSITISCTGTSSDVGGYNYVSWYQQHPGKAPKLMIYDVSNRPSGVSNRFSGSKSGNTASLTISGLQAEDEADYYCSSYTSSSTWVFGGGTKLTVL
notes: tested as scFv-Fc (human IgG1); also called #50
B8: YU45-A8/C6 (Fc fusion)
VH: B5 VH with E1Q, L5V
VL: B7 VL with S54G, S96G
notes: tested as scFv-Fc (human IgG1); also called #27
B9: YU45-C11/A10 (Fc fusion)
VH: EVQLLESGGGVVQPGRSLRLSCAASGFTFSSYAMHWVRQAPGEGLEWVAVISYDGSNKYYADSVKGRFTISRDNAKDSLYLQMNSLRDEDTAVYYCARRGYFDYWGQGTLVTVSS
VL: B7 VL with W99V
notes: tested as scFv-Fc (human IgG1); also called #6
B10: YU45-H11/D12 (Fc fusion)
VH: EVQLLESGGGVVQPGRSRRLSCAASGFTFSSYGMHWVRQAPGKGLEWVAVISYDGSNKYYADSVKGRFTISRDNSKNTLYLQMNSLRAEDTAVYYCAKLYSGSSNFDYWGQGTLVTVSS
VL: B7 VL
notes: tested as scFv-Fc (human IgG1); also called #9
B11: YU45-H10 (Fc fusion)
VH: B10 VH with T28S, F29L, S30N
VL: B7 VL
notes: tested as scFv-Fc (human IgG1); also called #22
B12: YU45-H3 (Fc fusion)
VH: EVQLVESGGGVVQPGRSLRLSCAASGFTFSSYAMHWVRQAPGKGLEWVAVISYDGSNKYYADSVKGRLTISRDNSKNTLYLQMNSLRAEDTAVYYCARMVNLYYGDAFDIWGQGTMVTVSS
VL: B7 VL with W99V
notes: tested as scFv-Fc (human IgG1); also called #25
B13: YU45-D9/D3 (Fc fusion)
VH: EVQLVESGGGVVQPGRSLRLSCAASGFTFSSYGMHWVRQAPGKGLEWVAVISYDGSNKYYADSVKGRFTISRDNSKNTLYLQMNSLRAEDTAVYYCARLHFSQYFSTIDAFDIWGQGTMVTISS
VL: QSVLTQPPSVSAAPGQEVTISCSGSSSNIGNNYVSWYQHLPGTAPKLLIYDNTERPSGIPDRFSGSRSGTSVTLGITGLQTGDEADYYCGTWDSSLSGGVFGGGTKLTVL
notes: tested as scFv-Fc (human IgG1); also called #31
B14: YU45-G7 (Fc fusion)
VH: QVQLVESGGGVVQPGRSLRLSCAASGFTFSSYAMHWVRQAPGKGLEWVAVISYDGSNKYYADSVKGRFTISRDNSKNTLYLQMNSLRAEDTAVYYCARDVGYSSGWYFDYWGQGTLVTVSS
VL: QSVLTQPPSVSAAPGRTVTISCSGSYSNVGSNLVSWYQQLPGTAPKLVIYEDDKRLSGIPDRFSGSKSGTSASLAISGLQSEDEADYYCAAWDDSLKGHVFGGGTQLTVL
notes: tested as scFv-Fc (human IgG1); also called #33
B15: YU46-A8 (Fc fusion, not shown: a dimerising Fc or GST; small tags and cut ends)
VH: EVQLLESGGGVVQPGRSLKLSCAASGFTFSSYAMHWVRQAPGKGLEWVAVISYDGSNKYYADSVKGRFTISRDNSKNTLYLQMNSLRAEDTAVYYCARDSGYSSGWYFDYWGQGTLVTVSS
VL: QSALTQPRSVSGSPGQSITISCTGTSSDVGGYEYVSWYQQHPGKAPRLLIYDVSNRPSGVSNRFSGSKSGNTASLTVSGLQAEDEADYYCNSYTSSGTLVVFGGGTKLTVL
notes: tested as scFv-Fc (human IgG1); also called #45
B16: YU46-B6 (Fc fusion, not shown: a dimerising Fc or GST; small tags and cut ends)
VH: QVQLVQSGAEVKKPGASVKVSCKASGYTFTSYGISWVRQAPGQGLEWMGWISAYNGNTNYAQKLQGRVTMTTDTSTSTAYMELRSLRSDDTAVYYCARVVAAARSYYYYMDVWGKGTTVTVSS
VL: SSELTQDPAVSVALGQTVRITCQGDSLRGYYATWYQQKPGQAPVVVMYGNNNRPSGIPDRFSGSSSGNTASLTITGAQAEDEADYYCDSRGRSGDHWLFGGGTKLTVL
notes: tested as scFv-Fc (human IgG1); also called #47
B17: YU46-G8 (Fc fusion, not shown: a dimerising Fc or GST; small tags and cut ends)
VH: EVQLVESGGGVVQPGRSLRLSCAASGFSLGSYGMHWVRQAPGKGLEWVAVISYDGSNKYYADSVKGRFTISRDNSKNTLYLQMNSLRAEDTAVYYCAKGSYYFDYWGQGTLVTVSS
VL: DIQMTQSPSSLSASVGDRVTITCRASQGSSSYLAWYQQKPGKAPKLLIYAASSLQSGVPSRFSGSGSGTDFTLTISSLQPEDFATYYCQQSYSTPLYTFGQGTKLEIK
notes: tested as scFv-Fc (human IgG1); also called #54
B18: YU46-D3 (Fc fusion, not shown: a dimerising Fc or GST; small tags and cut ends)
VH: B9 VH with E43K, I70S, A75S, D77N, S78T, D88A, R99S, Y101V, F102L
VL: B15 VL with R8A, G31N, E33K, R47K, L49M, V77I, N91S, G97S
notes: tested as scFv-Fc (human IgG1); also called #56

target: T1, FLAG-tagged human IL-11 expressed at the cell surface (human, UniProt P20809 22-199); assay: flow cytometry of hybridoma subclone supernatants on cells transfected with pB1-IL11-hum.FL (FLAG-tagged human IL-11 at the cell surface), anti-mouse IgG detection; sheet says 'flow cytometry (Attunes)', legend says iQue
T1 construct: whole, on cells; also called IL-11 expressing HEK cells; target cells expressing human IL-11 at their surface; not shown: how the protein is held at
T1 sequence (looked up): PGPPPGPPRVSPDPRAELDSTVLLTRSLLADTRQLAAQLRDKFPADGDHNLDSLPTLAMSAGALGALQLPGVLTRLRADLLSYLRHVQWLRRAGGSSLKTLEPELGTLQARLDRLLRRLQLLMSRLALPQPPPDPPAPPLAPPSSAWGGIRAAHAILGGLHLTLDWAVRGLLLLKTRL

Binder	% positive (anti-FLAG positive control = 100%)
B1	157%
B2	164%

target: T2, human IL-11 (human, UniProt P20809 22-199); assay: cell-based or functional assay
T2 sequence (looked up): T1 sequence (looked up)

Binder	MMP2 production (ng/ml), TGFB1-stimulated human atrial fibroblasts, Experiment 1 (NEG 42.7, POS 70.2)	MMP2 production (ng/ml), TGFB1-stimulated human atrial fibroblasts, Experiment 2 (NEG 36.2, POS 62.3)
B3	54.1 ng/mL	48.2 ng/mL
B4	53.5 ng/mL	49.1 ng/mL

target: T2, human IL-11; assay: EC50 from the indirect ELISA titrations of FIGS. 28A-28F on plate-coated recombinant human IL-11 (five-parameter fit), ng/ml is the concentration unit of FIG. 28 and paragraph 502

Binder	EC50
B5	0.0428 µg/mL
B6	4.98 µg/mL
B7	0.707 µg/mL
B8	0.71 µg/mL
B9	0.0677 µg/mL
B10	0.0146 µg/mL
B11	0.0248 µg/mL
B12	0.126 µg/mL
B13	0.71 µg/mL
B14	0.0101 µg/mL
B15	0.351 µg/mL
B16	0.222 µg/mL
B17	0.0323 µg/mL
B18	0.655 µg/mL

— patent US20180186871A1 (SINGAPORE HEALTH SERVICES PTE, published 2018)
